Experimental data published in patent publication US20250295799A1 (Zymeworks, published 2025).
Numbering of substitutions follows the chain as printed.

B1: v36180-MC-GGFG-AM-Compound 139 (DAR8) (antibody, human IgG1, kappa, V domains shown)
VH: EVQLVQSGAEVKKPGSSVKVSCKASGYTFTDYEMHWVRQAPGQGLEWIGAIDPETGDTAYNQKFKGRATLTADKSTSTAYMELSSLRSEDTAVYYCTRYFSFAYWGQGTLVTVSS
VL: DVQMTQSPSSVSASVGDRVTITCRSSQSLRHSNGNTYLQWYQQKPGKAPKLLIYKVSNRFSGVPSRFSGSGSGTDFTLTISSLQPEDFATYFCYQSKHVPYTFGQGTKVEIKR
modifications: MC-GGFG-AM-Compound 139 drug-linker on reduced cysteines, sites not stated; MC-GGFG-AM-Compound 139 drug-linker on reduced cysteines, sites not stated; DAR 8 for the whole antibody
B2: v36180-MC-GGFG-Compound 141 (DAR8) (antibody, human IgG1, kappa, V domains shown)
VH: B1 VH
VL: B1 VL
modifications: MC-GGFG-Compound 141 drug-linker on reduced cysteines, sites not stated; MC-GGFG-Compound 141 drug-linker on reduced cysteines, sites not stated; DAR 8 for the whole antibody
B3: v36180-MC-GGFG-AM-Compound 141 (DAR8) (antibody, human IgG1, kappa, V domains shown)
VH: B1 VH
VL: B1 VL
modifications: MC-GGFG-AM-Compound 141 drug-linker on reduced cysteines, sites not stated; MC-GGFG-AM-Compound 141 drug-linker on reduced cysteines, sites not stated; DAR 8 for the whole antibody
B4: M3-H18L6 (WT) mAb, v38592 (antibody, human IgG1, kappa)
heavy: not shown
light: EIVLTQSPATLSLSPGERATISCRSSQSLRHSNGNTYLQWYQQKPGQAPRLLIYKVSNRFSGVPARFSGSGSGTDFTLTISSLEPEDFAVYFCYQSKHVPYTFGGGTKVEIKRTVAAPSVFIFPPSDEQLKSGTASVVCLLNNFYPREAKVQWKVDNALQSGNSQESVTEQDSKDSTYSLSSTLTLSKADYEKHKVYACEVTHQGLSSPVTKSFNRGEC
notes: Full-size IgG1/kappa; also called wild-type M3-H18L6; M3-H18L6 with HC C-terminal lysine
B5: v40219, H18L6_LC_N33A mAb (antibody, human IgG1, kappa, V domains shown)
VH: B1 VH with E1Q, R38K, Q43H, R67K, K74T
VL: EIVLTQSPATLSLSPGERATISCRSSQSLRHSAGNTYLQWYQQKPGQAPRLLIYKVSNRFSGVPARFSGSGSGTDFTLTISSLEPEDFAVYFCYQSKHVPYTFGGGTKVEIKR
notes: no number given for this variant
B6: v40215, H18L6_LC_N33V mAb (antibody, human IgG1, kappa, V domains shown)
VH: B1 VH with E1Q, R38K, Q43H, R67K, K74T
VL: B5 VL with A33V
notes: as for B5
B7: v40209, H18L6_LC_G34T mAb (antibody, human IgG1, kappa, V domains shown)
VH: B1 VH with E1Q, R38K, Q43H, R67K, K74T
VL: B5 VL with A33N, G34T
notes: as for B5
B8: v40211, H18L6_LC_G34V mAb (antibody, human IgG1, kappa, V domains shown)
VH: B1 VH with E1Q, R38K, Q43H, R67K, K74T
VL: B5 VL with A33N, G34V
notes: as for B5
B9: v40220, H18L6_LC_N33Q mAb (antibody, human IgG1, kappa, V domains shown)
VH: B1 VH with E1Q, R38K, Q43H, R67K, K74T
VL: B5 VL with A33Q
notes: as for B5
B10: v40217, H18L6_LC_N33K mAb (antibody, human IgG1, kappa, V domains shown)
VH: B1 VH with E1Q, R38K, Q43H, R67K, K74T
VL: B5 VL with A33K
notes: as for B5
B11: v40208, H18L6_LC_G34Q mAb (antibody, human IgG1, kappa, V domains shown)
VH: B1 VH with E1Q, R38K, Q43H, R67K, K74T
VL: B5 VL with A33N, G34Q
B12: v40218, H18L6_LC_N33H mAb (antibody, human IgG1, kappa, V domains shown)
VH: B1 VH with E1Q, R38K, Q43H, R67K, K74T
VL: B5 VL with A33H
notes: as for B5
B13: v40212, H18L6_LC_G34A mAb (antibody, human IgG1, kappa, V domains shown)
VH: B1 VH with E1Q, R38K, Q43H, R67K, K74T
VL: B5 VL with A33N, G34A
notes: as for B5
B14: v40213, H18L6_LC_N33E mAb (antibody, human IgG1, kappa, V domains shown)
VH: B1 VH with E1Q, R38K, Q43H, R67K, K74T
VL: B5 VL with A33E
notes: as for B5
B15: v40221, H18L6_LC_N33S mAb (antibody, human IgG1, kappa, V domains shown)
VH: B1 VH with E1Q, R38K, Q43H, R67K, K74T
VL: B5 VL with A33S
notes: as for B5
B16: v40210, H18L6_LC_G34S mAb (antibody, human IgG1, kappa, V domains shown)
VH: B1 VH with E1Q, R38K, Q43H, R67K, K74T
VL: B5 VL with A33N, G34S
notes: as for B5
B17: v40216, H18L6_LC_N33R mAb (antibody, human IgG1, kappa, V domains shown)
VH: B1 VH with E1Q, R38K, Q43H, R67K, K74T
VL: B5 VL with A33R
notes: as for B5
B18: v40214, H18L6_LC_N33T mAb (antibody, human IgG1, kappa, V domains shown)
VH: B1 VH with E1Q, R38K, Q43H, R67K, K74T
VL: B5 VL with A33T
notes: as for B5

These binders were tested against human GPC3 on cells (human, UniProt P51654 25-554) (assay: cell-based or functional assay).
For JHH-5 Internalization (MFI) in this document: test concentration or dose not given here.
For JHH-5 Internalization (MFI), Day 0 in mouse plasma in this document: test concentration or dose not given here.
For JHH-5 Internalization (MFI), Day 14 in mouse plasma in this document: test concentration or dose not given here.
For JHH-7 Internalization (MFI) in this document: test concentration or dose not given here.

| Binder | EC50 (nM), cytotoxicity, 2D monolayer, HepG2 (High) | EC50 (nM), cytotoxicity, 2D monolayer, Huh-7 (Mid) | EC50 (nM), cytotoxicity, 2D monolayer, JHH-5 (Mid) | EC50 (nM), cytotoxicity, 2D monolayer, JHH-7 (High) | EC50 (nM), cytotoxicity, 2D monolayer, Huh-6 (Mid) |
| --- | --- | --- | --- | --- | --- |
| B1 | 0.09 nM | 0.01 nM | 0.14 nM | 1 nM | – |
| B2 | 0.03 nM | 0.03 nM | 0.11 nM | 0.03 nM | 0.12 nM |
| B3 | 0.03 nM | 0.01 nM | 0.08 nM | 0.02 nM | 0.12 nM |

What follows are binders tested against T1, human glypican-3 (GPC3) (human, UniProt P51654 25-554) (assay: cell-based or functional assay).

| Binder | JHH-5 Internalization (MFI) | JHH-7 Internalization (MFI) |
| --- | --- | --- |
| B4 | 10500 MFI | 7260 MFI |

Target: T1, human glypican-3 (GPC3)
Assay: cell-based or functional assay
Remark: another data set of the same source

| Binder | JHH-5 Internalization (MFI), Day 0 in mouse plasma | JHH-5 Internalization (MFI), Day 14 in mouse plasma | JHH-7 Internalization (MFI), Day 0 in mouse plasma | JHH-7 Internalization (MFI), Day 14 in mouse plasma |
| --- | --- | --- | --- | --- |
| B4 | 12200 MFI | 7250 MFI | 152 MFI | 76 MFI |

These binders were tested against T1, human glypican-3 (GPC3) (assay: flow cytometry on JHH-5 cells (GPC3-mid);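 also: antibody binding to cells at 4 °C for 24 h, detected with anti-human AF647 as geometric mean fluorescence of live cells versus antibody concentration, fitted by specific binding with Hill slope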).
Description: (§1) Briefly, cells were seeded at 50,000 cells/well in V-bottom 96-well plates and treated with antibody for 24 hours at 4° C. to prevent internalization. […] Following incubation and washing, fluorescence was detected by flow cytometry on a BD LSRFortessa™ Cell Analyzer (BD Biosciences, Franklin Lake, NJ) with 1,000 minimum events collected per well. AF647/APC-A GeoMean (fluorescence signal geometric mean, proportional to anti-Human AF647 binding) in live cell population was plotted against antibody concentration using GraphPad Prism Version 9 (GraphPad Software, San Diego, CA). The Bmax, Curve Hill Slope (h) and Kd values were derived from the “Specific binding with Hill slope” nonlinear regression curve fit in GraphPad Prism Version 9.

| Binder | Bmax (MFI) | Kd |
| --- | --- | --- |
| B4 | 4670 MFI | 0.12 nM |

These binders were tested against T1, human glypican-3 (GPC3) (assay: flow cytometry on JHH-7 cells (GPC3-high);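 also: antibody binding at 4 °C for 24 h, detected with anti-human AF647 secondary, geometric mean fluorescence of live cells versus antibody concentration, fitted as specific binding with Hill slope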).
Description: as §1

| Binder | Bmax (MFI) | Kd |
| --- | --- | --- |
| B4 | 14100 MFI | 0.42 nM |

What follows are binders tested against T2, recombinant cynomolgus GPC3 (glypican-3) (cynomolgus monkey, UniProt A0A2K5VK50 24-558) (assay: SPR; Kd on human GPC3 divided by Kd on cynomolgus GPC3).
T2 construct: also called cynoGPC3
Description: (§2) CM5 Series S sensor chip, Biacore™ amine coupling kit (NHS, EDC and 1 M ethanolamine), and 10 mM sodium acetate buffers were purchased from Cytiva Life Sciences (Mississauga, ON, Canada). PBS running buffer with 0.05% Tween20 (PBST) was purchased from Teknova Inc. (Hollister, CA). Antigens: recombinant human and cynomolgus GPC3 was purchased from ACROBiosystems (Newark, DE) and SEC purified on a Superdex 200 10/300 GL column (Cytiva) in PBST running buffer at 0.8 mL/min.
(§3) Screening of the antibodies for binding to GPC3 antigen was conducted via anti-Fc capture of antibodies, followed by the injection of five concentrations of GPC3. The anti-Fc surface was prepared on a CM5 Series S sensor chip by standard amine coupling methods as described by the manufacturer (Cytiva Life Sciences, Mississauga, ON, Canada). […] Approximately 150-400 RUs of each antibody (5-20 μg/mL) were captured on the goat anti-human IgG surface by injecting at 10 μL/min for 60s. Using single-cycle kinetics, five concentrations of a two-fold dilution series of human or cynomolgus GPC3 starting at 40 nM, 20 nM, 10 nM, or 5 nM depending on the antibody, with a blank buffer control were injected at 20 μL/min for 180s of contact time, followed by 180 s dissociation phase, resulting in sensorgrams with a buffer blank reference. The anti-Fc surface was regenerated to prepare for the next injection cycle by one pulse of 10 mM glycine/HCl pH 1.5 for 120 s at 40 μL/min. Blank-subtracted sensorgrams were analyzed and fit to the 1:1 Langmuir binding model using Biacore™ T200 Evaluation Software v3.2.

| Binder | Kd Fold difference (hu/cyno) |
| --- | --- |
| B5 | 1.77 fold |
| B6 | 1.27 fold |
| B7 | 1.53 fold |
| B8 | 1.13 fold |
| B9 | 1.12 fold |
| B10 | 1.3 fold |
| B11 | 1.48 fold |
| B12 | 2.1 fold |
| B13 | 1.61 fold |
| B14 | 1.37 fold |
| B15 | 1.24 fold |
| B16 | 1.56 fold |
| B17 | 1.82 fold |
| B18 | 1.21 fold |

What follows are binders tested against T1, human glypican-3 (GPC3) (assay: flow cytometry on CHO-S cells transfected with human GPC3;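 also: antibody binding to transiently transfected CHO-S cells after 24 hours at 4 °C, read as geometric mean fluorescence of anti-human AF647 in live cells, fitted against antibody concentration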).
Description: (§4) Briefly, CHO—S cells were transiently transfected for −24 hours with a pTT5-based expression plasmid encoding human GPC3 or cynomolgus monkey GPC3, 0.5 μg DNA per 1 million cells, using the Neon™ Transfection System (Thermo Fisher Scientific Corp., Waltham, MA), to transiently express human or cynomolgus monkey GPC3. Cells transfected with GFP were used as negative transfection controls. Following transfection, cells were seeded at 50,000 cells/well in V-bottom 96-well plates and treated with antibody for 24 hours at 4° C. to prevent internalization. […] Following incubation and washing, fluorescence was detected by flow cytometry on a BD LSRFortessa™ Cell Analyzer (BD Biosciences, Franklin Lake, NJ) with 1,000 minimum events collected per well. AF647/APC-A GeoMean (fluorescence signal geometric mean, proportional to anti-Human AF647 binding) in live cell population was plotted against antibody concentration using GraphPad Prism Version 9 (GraphPad Software, San Diego, CA). The Bmax and Kd values were derived from the “Specific binding with Hill slope” nonlinear regression curve fit in GraphPad Prism Version 9.

| Binder | Bmax (MFI) | Kd |
| --- | --- | --- |
| B4 | 2530 MFI | 0.14 nM |

What follows are binders tested against T3, cynomolgus monkey glypican-3 (GPC3) (cynomolgus monkey, UniProt A5A6P7 25-554 (Pan troglodytes entry)) (assay: flow cytometry on CHO-S cells transfected with cynomolgus GPC3;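 also: antibodies incubated 24 h at 4 °C with transiently transfected cells, binding read as AF647 geometric mean fluorescence of live cells, GFP-transfected cells as negative control, Hill-slope specific-binding fit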).
T3 construct: Transiently expressed on CHO-S cells; also called cynoGPC3; CynoGPC3-CHO
Description: as §4

| Binder | Bmax (MFI) | Kd |
| --- | --- | --- |
| B4 | 3150 MFI | 0.19 nM |

These binders were tested against T1, human glypican-3 (GPC3) (assay: flow cytometry on JHH-5 cells; antibody in mouse plasma, day 0).
Description: (§5) For binding cells were seeded at 50,000 cells/well in V-bottom 96-well plates and treated with antibody for 24 hours at 4° C. to prevent internalization. […] Following incubation and washing, fluorescence was detected by flow cytometry on a BD LSRFortessa™ Cell Analyzer (BD Biosciences, Franklin Lake, NJ) with 1,000 minimum events collected per well. AF647/APC-A GeoMean (fluorescence signal geometric mean, proportional to anti-Human AF647 binding) in live cell population was plotted against antibody concentration using GraphPad Prism Version 9 (GraphPad Software, San Diego, CA). The Bmax, Curve Hill Slope (h) and Kd values were derived from the “Specific binding with Hill slope” nonlinear regression curve fit in GraphPad Prism Version 9.

| Binder | Bmax (MFI) | Kd |
| --- | --- | --- |
| B4 | 5130 MFI | 0.14 nM |

What follows are binders tested against T1, human glypican-3 (GPC3) (assay: flow cytometry on JHH-7 cells; antibody in mouse plasma, day 0).
Description: as §5

| Binder | Bmax (MFI) | Kd |
| --- | --- | --- |
| B4 | 9770 MFI | 0.39 nM |

These binders were tested against T4, recombinant human GPC3 (glypican-3) (human, UniProt P51654 25-559) (assay: SPR (Biacore T200), antibody captured by anti-Fc, GPC3 injected).
T4 construct: also called huGPC3; hGPC3
Description: as §2, §3

| Binder | Avg % binding huGPC3 (RU observed/theoretical) |
| --- | --- |
| B5 | 17.4% |
| B6 | 17.5% |
| B7 | 43.6% |
| B8 | 23.4% |
| B9 | 16.1% |
| B10 | 15.5% |
| B11 | 46.3% |
| B12 | 15.6% |
| B13 | 42.5% |
| B14 | 14.9% |
| B15 | 18% |
| B16 | 42.8% |
| B17 | 15.8% |
| B18 | 21.3% |

The binders below were run against T4, recombinant human GPC3 (glypican-3) (assay: SPR (Biacore T200), antibody captured by anti-Fc, GPC3 injected, single-cycle kinetics, 1:1 fit; average).
Description: as §2, §3

| Binder | Kd |
| --- | --- |
| B5 | 18.3 nM |
| B6 | 22.5 nM |
| B7 | 11.3 nM |
| B8 | 21 nM |
| B9 | 17.5 nM |
| B10 | 18.2 nM |
| B11 | 10.6 nM |
| B12 | 20.1 nM |
| B13 | 12.5 nM |
| B14 | 22.7 nM |
| B15 | 19.5 nM |
| B16 | 10.3 nM |
| B17 | 20.1 nM |
| B18 | 19.9 nM |

The binders below were run against T2, recombinant cynomolgus GPC3 (glypican-3) in the same assay as above.
Description: as §2, §3

| Binder | Kd |
| --- | --- |
| B5 | 10.4 nM |
| B6 | 17.8 nM |
| B7 | 7.43 nM |
| B8 | 18.5 nM |
| B9 | 15.7 nM |
| B10 | 14 nM |
| B11 | 7.18 nM |
| B12 | 9.57 nM |
| B13 | 7.78 nM |
| B14 | 16.6 nM |
| B15 | 15.8 nM |
| B16 | 6.58 nM |
| B17 | 11.1 nM |
| B18 | 16.4 nM |
